Test results reported in US20150079112A1 (SAMSUNG ELECTRONICS, published 2015).

What was measured:
[1] = biological target: T1, Ang2 protein (R&D systems) (human, UniProt O15123 19-496); assay: cell-based or functional assay
T1 sequence: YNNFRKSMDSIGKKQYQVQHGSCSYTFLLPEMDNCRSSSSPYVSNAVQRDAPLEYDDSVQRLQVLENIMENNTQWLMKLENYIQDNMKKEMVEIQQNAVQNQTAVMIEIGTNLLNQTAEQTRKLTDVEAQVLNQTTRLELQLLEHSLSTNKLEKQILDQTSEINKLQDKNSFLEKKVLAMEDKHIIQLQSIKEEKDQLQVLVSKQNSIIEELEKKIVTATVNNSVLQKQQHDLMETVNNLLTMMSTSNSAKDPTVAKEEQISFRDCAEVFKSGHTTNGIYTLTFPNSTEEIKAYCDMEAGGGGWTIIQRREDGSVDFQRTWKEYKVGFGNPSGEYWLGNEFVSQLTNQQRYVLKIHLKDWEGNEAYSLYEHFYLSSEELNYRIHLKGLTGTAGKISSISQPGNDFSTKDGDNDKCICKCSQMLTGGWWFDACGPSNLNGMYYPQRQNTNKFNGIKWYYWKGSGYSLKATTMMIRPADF

[2] = biological target: T2, mutant Ang2 protein, P419 substituted with alanine, FLAG-tagged at its N-terminal (human, UniProt O15123 19-496, limits assumed); assay: ELISA, coated antibody 1000 nM, 250 ng FLAG-tagged mutant Ang2, anti-FLAG-HRP, OD450
T2 sequence: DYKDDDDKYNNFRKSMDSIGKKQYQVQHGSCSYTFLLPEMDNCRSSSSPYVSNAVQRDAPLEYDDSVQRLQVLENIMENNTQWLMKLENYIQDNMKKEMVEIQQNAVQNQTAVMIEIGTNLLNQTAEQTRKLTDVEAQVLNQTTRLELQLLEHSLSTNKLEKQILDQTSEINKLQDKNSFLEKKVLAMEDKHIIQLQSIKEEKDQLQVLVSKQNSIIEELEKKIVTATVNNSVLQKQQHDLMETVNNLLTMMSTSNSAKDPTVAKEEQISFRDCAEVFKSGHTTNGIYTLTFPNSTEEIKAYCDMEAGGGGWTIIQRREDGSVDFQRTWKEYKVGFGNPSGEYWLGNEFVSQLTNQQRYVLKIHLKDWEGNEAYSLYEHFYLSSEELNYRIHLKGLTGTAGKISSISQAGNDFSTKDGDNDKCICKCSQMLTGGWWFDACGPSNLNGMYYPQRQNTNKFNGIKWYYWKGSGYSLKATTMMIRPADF
Experimental: (§1) Each well of a 96-well MaxiSorp™ flat-bottom plate (Nunc) was coated with 50 ul (microliter) of 1000 nM antibody. Then, the plate was washed five times with 0.05% (v/v) Tween-20-containing PBS (PBST) and blocked with 1% (v/v) BSA-containing PBS at a room temperature for 2 hours. 250 ng of each mutant Ang2 protein obtained by substituting S417, Q418, P419, N421, I434, D448, A449, P452, Y460, N467, K468, or F469 residue of Ang2 protein tagged with a FLAG sequence ([…], Sigma) at its N-terminal with alanine was added to each well of the plate, which was then allowed to react at a room temperature for 2 hours.
(§2) The plate was washed five times with 0.05% (v/v) Tween-20 containing PBS, reacted with an anti-FLAG antibody (SIGMA) conjugated with HRP which was diluted in 1% (v/v) BSA-containing PBS at a ratio of 1:5,000 (v/v) at a room temperature for 1 hour, and washed five times with 0.1% (v/v) Tween-20-containing PBS.
(§3) Finally, 50 ul of TMB substrates (Cell signaling) was added to each well of the plate to induce color development at a room temperature for 3 min. and the reaction was ceased by the addition of 50 ul of Stop solution (Cell signaling) and then, OD450 values were measured on a plate reader (Molecular Devices). By comparing binding affinities with mutated Ang2 to those of unmutated Ang2, each epitope of Ang2 antibodies was identified. The thus obtained measurement results of the binding affinities (%) with mutant Ang2 against the binding affinity with the native Ang2 are shown in the following Table 8.

[3] = biological target: T3, mutant Ang2 protein, N421 substituted with alanine, FLAG-tagged at its N-terminal (human, UniProt O15123 19-496, limits assumed); assay: as above
T3 sequence: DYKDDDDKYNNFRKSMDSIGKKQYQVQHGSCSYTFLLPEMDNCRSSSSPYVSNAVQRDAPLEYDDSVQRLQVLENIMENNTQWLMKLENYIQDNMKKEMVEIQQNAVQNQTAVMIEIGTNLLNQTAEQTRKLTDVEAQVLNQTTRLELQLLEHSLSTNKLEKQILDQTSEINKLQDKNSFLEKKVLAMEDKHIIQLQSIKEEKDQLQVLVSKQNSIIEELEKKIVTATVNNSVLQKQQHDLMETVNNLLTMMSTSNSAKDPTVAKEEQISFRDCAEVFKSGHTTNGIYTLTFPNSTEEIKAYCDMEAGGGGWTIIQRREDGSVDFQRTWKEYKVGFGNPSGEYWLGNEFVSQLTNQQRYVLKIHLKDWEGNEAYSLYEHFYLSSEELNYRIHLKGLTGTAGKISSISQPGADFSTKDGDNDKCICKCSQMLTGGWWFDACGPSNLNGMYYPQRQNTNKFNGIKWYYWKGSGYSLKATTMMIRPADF
Experimental: as §1, §2, §3

[4] = biological target: T4, mutant Ang2 protein, Y460 substituted with alanine, FLAG-tagged at its N-terminal (human, UniProt O15123 19-496, limits assumed); assay: as above
T4 sequence: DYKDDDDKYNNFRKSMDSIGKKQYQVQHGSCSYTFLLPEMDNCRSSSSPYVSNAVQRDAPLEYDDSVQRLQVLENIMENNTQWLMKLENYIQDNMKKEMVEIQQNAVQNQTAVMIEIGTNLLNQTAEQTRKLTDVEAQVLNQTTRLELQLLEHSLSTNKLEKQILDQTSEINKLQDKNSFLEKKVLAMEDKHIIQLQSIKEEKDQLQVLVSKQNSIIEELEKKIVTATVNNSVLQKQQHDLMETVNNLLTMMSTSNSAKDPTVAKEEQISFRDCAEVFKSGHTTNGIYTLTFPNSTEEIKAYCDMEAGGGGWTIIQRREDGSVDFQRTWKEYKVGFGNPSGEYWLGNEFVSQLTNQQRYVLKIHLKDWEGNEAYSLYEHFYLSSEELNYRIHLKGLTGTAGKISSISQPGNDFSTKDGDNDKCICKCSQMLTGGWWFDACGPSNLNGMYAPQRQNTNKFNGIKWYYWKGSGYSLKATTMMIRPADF
Experimental: as §1, §2, §3

B1: SAIT-ANG2-AB-m10D6 (antibody, V domains shown)
VH: DVQLQESGPGLVKPSQSLSLTCTVTGYSITSDYAWNWIRQFPGNKLEWMGYINYSGNTDYNPSLKSRSSITRDTSKNQFFLQLNSVTTGDTATYYCARGNFEGAMDYWGQGTSVTVSS
VL: SIVMTQTPKFLLVSAGDRVTITCKASQSVSNDVAWYQQKPGQSPKLLIYYASNRYPGVPDRFTGSGYGTDFTFTISTVQAEDLAVYFCQQDYSSPWTFGGGTKLEIK
notes: also called antibody 10D6; anti-Ang2 antibody (10D6)
Tie2 phosphorylation effect relative to control antibody RG [1]: ~8.6 fold | Tie2 phosphorylation level (pTyr/Tie2 ratio), HUVEC, 60 nM antibody with Ang2 [1]: 180% | binding affinity (%) with mutant Ang2 against the binding affinity with the native Ang2 [2]: 41.1% | binding affinity (%) with mutant Ang2 against the binding affinity with the native Ang2 [3]: 109% | binding affinity (%) with mutant Ang2 against the binding affinity with the native Ang2 [4]: 103%
